Residue numbers refer to the chain shown, from its start.
T1: cynomolgus monkey IL-18BP (cynomolgus monkey)
T1 chain: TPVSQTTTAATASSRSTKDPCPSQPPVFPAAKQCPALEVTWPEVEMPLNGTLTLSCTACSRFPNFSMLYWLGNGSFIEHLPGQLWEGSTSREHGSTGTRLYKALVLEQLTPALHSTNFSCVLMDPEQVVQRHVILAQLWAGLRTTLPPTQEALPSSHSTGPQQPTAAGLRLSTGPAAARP

T2: human IL-18BP (interleukin-18 binding protein), mature human isoform A (human, UniProt O95998 31-194)
T2 sequence: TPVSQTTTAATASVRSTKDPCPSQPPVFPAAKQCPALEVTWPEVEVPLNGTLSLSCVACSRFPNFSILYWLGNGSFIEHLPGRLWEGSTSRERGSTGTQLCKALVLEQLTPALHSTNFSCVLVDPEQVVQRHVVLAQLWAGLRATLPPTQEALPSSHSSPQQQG

B1: SA302a (antibody, human IgG1, V domains shown)
VH: QVQLQESGPGLVKPSQTLSLTCTVSGYSITSDYNAHWIRQPPGKGLEWIGYIHYSGSTNYNPSLKSRVTISRDTSKNQFSLKLSSVTAADTAVYYCARNYGSIYVNYFDYWGQGTLVTVSS
VL: EIVLTQSPATLSLSPGERATLSCSASSSVSYMYWYQQKPGQAPRPLIYRTSNLASGIPARFSGSGSGTDFTLTISSLEPEDFAVYYCQQYHSYPTFGGGTKVEIK
B2: SA339a (antibody, human IgG1, V domains shown)
VH: B1 VH with S31Q, S57Q, N59Y, Y100F
VL: B1 VL with P94V
notes: Humanized; human IgG1, kappa
B3: SA337a (antibody, human IgG1, V domains shown)
VH: B1 VH with S31Q, S57Q
VL: B1 VL with Q89L
B4: SA340a (antibody, human IgG1, V domains shown)
VH: B1 VH with S31Q, S57Q, N59Y, Y100F
VL: B1 VL with T95K
B5: SA338a (antibody, human IgG1, V domains shown)
VH: B1 VH with S31Q, S57Q, N59Y, Y100F
VL: B1 VL with Q89L

Legend:
[1] = biological target: T1, cynomolgus monkey IL-18BP; assay: cell-based or functional assay
[2] = biological target: T2, human IL-18BP (interleukin-18 binding …); assay: cell-based or functional assay
[3] = biological target: T2, human IL-18BP (interleukin-18 binding …); assay: cell-based or functional assay; remark: listed apart in the source
[4] = biological target: T1, cynomolgus monkey IL-18BP; assay: cell-based or functional assay
[5] = biological target: T2, human IL-18BP (interleukin-18 binding …); assay: BLI (Octet), mAb on AHC biosensor, IL-18BP in solution

Binder	EC50; IFNγ release (ELISA) from cynomolgus monkey PBMC with IL-12 + IL-18, assay format 1 (endogenous IL-18BP) [1] [nM]	EC50; CCL2 release (ELISA) from human PBMC with IL-12 + IL-18, PBMC assay 1 (endogenous IL-18BP) [2] [nM]	EC50; IFNγ secretion (ELISA) from purified human NK cells with precomplexed hIL-18:hIL-18BP plus IL-12 [3] [nM]	EC50; IFNγ release (ELISA) from cynomolgus monkey PBMC, assay format 2 (pre-complexed IL-18:IL-18BP, plus IL-12) [4] [nM]	Kd [5] [nM]
B1	3.4	25	1.3	0.63	
B2					0.087
B3	0.58	4.7	0.59	0.39	
B4			0.23		
B5	0.14	0.9	0.43	0.41	

— patent publication US20240417479A1 (LASSEN THERAPEUTICS, published 2024)
